According to publication doi:10.1101/2025.09.16.676506 (bioRxiv, 2025):
Like-named read-outs stand apart in the source and are kept apart here.

Columns and labels:
Experiment in all cases: cryo-EM structure
[1] = target: T1, TatC with a C-terminal 3XFLAG tag (E. coli), P69423; conditions: remark: other sources report otherwise
T1 chain: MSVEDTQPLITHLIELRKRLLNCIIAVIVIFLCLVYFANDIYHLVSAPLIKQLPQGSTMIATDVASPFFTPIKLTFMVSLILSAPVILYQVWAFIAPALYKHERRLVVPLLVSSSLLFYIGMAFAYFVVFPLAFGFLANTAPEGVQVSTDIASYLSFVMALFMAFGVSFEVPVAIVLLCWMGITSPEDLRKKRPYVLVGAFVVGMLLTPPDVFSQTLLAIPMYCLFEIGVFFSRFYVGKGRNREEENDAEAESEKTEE

TatB3C3 complex [2] = target: T2, TatB3C3 complex (E. coli, UniProt P69425;P69423)
T2 sequence 1: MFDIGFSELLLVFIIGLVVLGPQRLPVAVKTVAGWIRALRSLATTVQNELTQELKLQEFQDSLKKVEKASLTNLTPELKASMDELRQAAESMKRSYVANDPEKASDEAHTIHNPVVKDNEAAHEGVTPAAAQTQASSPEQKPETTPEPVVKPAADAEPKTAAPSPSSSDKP
T2 sequence 2: T1 chain

TatB3C3 complex [3] = target: T2, TatB3C3 complex; remark: listed apart in the source
cryo-EM structure = target: the molecule itself

B1: TatC with a C-terminal 3XFLAG tag, P69423 1-258 (natural protein)
chain: T1 chain
For B1, the stoichiometry N [1] was 3.

B2: SufI–8×His (natural protein)
chain: MSLSRRQFIQASGIALCAGAVPLKASAAGQQQPLPVPPLLESRRGQPLFMTVQRAHWSFTPGTRASVWGINGRYLGPTIRVWKGDDVKLIYSNRLTENVSMTVAGLQVPGPLMGGPARMMSPNADWAPVLPIRQNAATLWYHANTPNRTAQQVYNGLAGMWLVEDEVSKSLPIPNHYGVDDFPVIIQDKRLDNFGTPEYNEPGSGGFVGDTLLVNGVQSPYVEVSRGWVRLRLLNASNSRRYQLQMNDGRPLHVISGDQGFLPAPVSVKQLSLAPGERREILVDMSNGDEVSITCGEAASIVDRIRGFFEPSSILVSTLVLTLRPTGLLPLVTDSLPMRLLPTEIMAGSPIRSRDISLGDDPGINGQLWDVNRIDVTAQQGTWERWTVRADEPQAFHIEGVMFQIRNVNGAMPFPEDRGWKDTVWVDGQVELLVYFGQPSWAHFPFYFNSQTLEMADRGSIGQLLVNPVP
In the case of B2, the “stoichiometry N” value (TatB3C3 complex [2]) is reported as 1 and the “stoichiometry N” value (TatB3C3 complex [3]) is reported as 2.

B3: TatB (natural protein)
chain: T2 sequence 1
With B3 the “stoichiometry N” value (cryo-EM structure) was 3.
